# Biological target: SpyCatcher003-A49C labelled with Alexa 555 maleimide
# Assay: FRET or BRET; inline mixing cell, SpyTag003-sfGFP (donor) and SpyCatcher003-AF555 (acceptor) each at 10 uM, equimolar, delays 0.02-10 s, emission at 515 nm, double exponential fit; observed rates at one concentration
substance,measurement,value
SpyTag003-sfGFP,"fast rate of the double exponential FRET decay (observed, 10 uM each)",143 s⁻¹
same,percent reduction of the donor fluorescence by FRET (20 ms to 10 s after mixing),> 50%
same,"slow rate of the double exponential FRET decay (observed, 10 uM each)",7 s⁻¹

# Source: PMC12236258
